1 substance from patent publication US10913711B2, “Potent and selective inhibitors of monoamine transporters; method of making; and use thereof” (priority 2013, dated 2021) can be followed below.

The subject of this data set is ON(O)CCc1ccccc1. The data set is described as follows: cells, lysate or membranes. Conditions: other: [3H]DA uptake, COS7 cells; pH 7.4; 37.0 °C.

Take “human DAT A480T mutant (Homo sapiens; A480T)”: the Km is listed as 1,930 nM.
